{"source": "patent US11248019B2", "about": "“Trityl-mono-GalNAc compounds and their use” (Hoffmann-La Roche Inc., priority 2016, dated 2022)", "type_in_all_cases": "in vivo, C57BL6/J mice", "key": {"[1]": {"test": "Oligonucleotide content in liver and kidney by ELISA (Example 7)", "conditions": "0.1 mg/kg single iv dose", "protocol": "(§1) Female C57BL6/J mice (5/group appr. 20 g at arrival) were injected intravenous (iv) with a single dose saline or 0.1 mg/kg of GalNAc conjugated LNA antisense oligonucleotide (Compound J, K, L, B or C of the invention or reference compound M). Blood samples of 50 μl were collected pre-dosing at day minus 6, and post dosing at day 3, 7, 10 and 14. The animals were sacrificed at day 7 or 14 and total serum was collected as well as liver and kidney.\nThe oligonucleotide content in the liver and kidney was measured using ELISA (see for example Straarup et al 2010 Nucleic Acid Res Vol 38 pp 7100-7111), results are shown in Table 16."}, "ALT in serum (Example 7)": {"test": "ALT in serum (Example 7)", "conditions": "0.1 mg/kg single iv dose", "protocol": "as §1\nALT (Alanine aminotransferase) was measured using ABX Pentra ALT CP reagent (A11A01627 Triolab, Brondby, Denmark. The results are shown in table 17."}, "ApoB mRNA [2]": {"tested_on": "ApoB mRNA", "test": "ApoB mRNA knockdown in liver and kidney by qPCR, single iv dose 0.1 mg/kg, day 7 or 14 (Example 7)", "conditions": "0.1 mg/kg single iv dose", "protocol": "(§2) ApoB mRNA knockdown was analyzed by qPCR. In brief, RNA was isolated from homogenized liver and kidney using MagnaPure RNA Isolation and purification system (catalog #03604721001 and #05467535001; Roche) according to the manufacturer's instructions. RT-QPCR was done using Taqman Fast Universal PCR Master Mix 2×(Applied Biosystems Cat #4364103) and Taqman gene expression assay (mApoB, Mn01545150_m1 and mGAPDH #4352339E) following the manufacturers protocol.\nas §1\nApoB mRNA knock down was measured as described in example 4."}, "ApoB mRNA [3]": {"tested_on": "ApoB mRNA", "test": "ApoB mRNA knockdown in liver and kidney by qPCR, single sc dose, sacrifice day 10 (Example 4)", "conditions": "for ApoB mRNA expression as % of saline, mRNA kidney: day 10, kidney; for ApoB mRNA expression as % of saline, mRNA liver: day 10, liver; for knock down of ApoB mRNA compared to the GalNAc2 cluster conjugated LNA oligonucleotide (compound G) / knock down of ApoB mRNA in the liver compared to unconjugated (naked) oligonucleotide (compound F): in words; for knock down of ApoB mRNA compared to the GalNAc2 cluster conjugated LNA oligonucleotide (compound G): high dose (0.25 mg/kg); for knock down of ApoB mRNA in the liver compared to unconjugated (naked) oligonucleotide (compound F): single sc dose, day 10", "protocol": "(§3) Female C57BL6/J mice (5/group appr. 20 g at arrival) were injected subcutaneous (sc) with a single dose saline or 0.25 mg/kg unconjugated LNA-antisense oligonucleotide (compound F) or with 0.25 mg/kg or 0.1 mg/kg of GalNAc conjugated LNA antisense oligonucleotide (Compound C or E of the invention or reference compound G). Blood samples of 50 μl were collected pre-dosing at day minus 6, and post dosing at day 3 and 7. The animals were sacrificed at day 10 and total serum was collected as well as liver and kidney.\nas §2"}, "[4]": {"test": "Oligonucleotide content in liver and kidney by ELISA (Example 4)", "conditions": "for Oligonucleotide content, Kidney / Oligonucleotide content, Liver: day 10", "protocol": "as §3\nThe oligonucleotide content in the liver and kidney was measured using ELISA (see for example Straarup et al 2010 Nucleic Acid Res Vol 38 pp 7100-7111), results are shown in Table 6."}}, "data": [{"substance": "5′-cOaOGS^mCSaStStSgSgStSaStSTS^mCSA-3′ [K]", "values": [{"measurement": "Oligonucleotide content, Avg kidney", "setting": "[1]; Day 7, kidney tissue", "result": 0.275, "unit": "µg/g"}, {"measurement": "Oligonucleotide content, Avg liver", "setting": "[1]; Day 7, liver tissue", "result": 0.401, "unit": "µg/g"}, {"measurement": "Oligonucleotide content, Avg kidney", "setting": "[1]; Day 14, kidney tissue", "result": 0.129, "unit": "µg/g"}, {"measurement": "Oligonucleotide content, Avg liver", "setting": "[1]; Day 14, liver tissue", "result": 0.173, "unit": "µg/g"}, {"measurement": "ALT levels (U/L) in serum as % of saline", "setting": "ALT in serum (Example 7); Day 7", "result": "170.3 % of saline"}, {"measurement": "ALT levels (U/L) in serum as % of saline", "setting": "ALT in serum (Example 7); Day 14", "result": "77.3 % of saline"}, {"measurement": "ApoB mRNA/mGAPDH expression as % of saline, Avg kidney", "setting": "ApoB mRNA [2]; Day 7, kidney", "result": "80.2 % of saline"}, {"measurement": "ApoB mRNA/mGAPDH expression as % of saline, Avg liver", "setting": "ApoB mRNA [2]; Day 7, liver", "result": "48.7 % of saline"}, {"measurement": "ApoB mRNA/mGAPDH expression as % of saline, Avg kidney", "setting": "ApoB mRNA [2]; Day 14, kidney", "result": "86.2 % of saline"}, {"measurement": "ApoB mRNA/mGAPDH expression as % of saline, Avg liver", "setting": "ApoB mRNA [2]; Day 14, liver", "result": "112.4 % of saline"}]}, {"substance": "5′-cOaOGS^mCSaStStSgSgStSaStSTS^mCSA-3′ [Compound C]", "values": [{"measurement": "Oligonucleotide content, Avg kidney", "setting": "[1]; Day 7, kidney tissue", "result": 0.307, "unit": "µg/g"}, {"measurement": "Oligonucleotide content, Avg liver", "setting": "[1]; Day 7, liver tissue", "result": 0.493, "unit": "µg/g"}, {"measurement": "Oligonucleotide content, Avg kidney", "setting": "[1]; Day 14, kidney tissue", "result": 0.118, "unit": "µg/g"}, {"measurement": "Oligonucleotide content, Avg liver", "setting": "[1]; Day 14, liver tissue", "result": 0.209, "unit": "µg/g"}, {"measurement": "ApoB mRNA expression as % of saline, mRNA kidney", "setting": "ApoB mRNA [3]; 0.1 mg/kg single sc dose", "result": "72.4 % of saline"}, {"measurement": "ApoB mRNA expression as % of saline, mRNA liver", "setting": "ApoB mRNA [3]; 0.1 mg/kg single sc dose", "result": "69.6 % of saline"}, {"measurement": "ApoB mRNA expression as % of saline, mRNA kidney", "setting": "ApoB mRNA [3]; 0.25 mg/kg single sc dose", "result": "56.1 % of saline"}, {"measurement": "ApoB mRNA expression as % of saline, mRNA liver", "setting": "ApoB mRNA [3]; 0.25 mg/kg single sc dose", "result": "24.0 % of saline"}, {"measurement": "knock down of ApoB mRNA compared to the GalNAc2 cluster conjugated LNA oligonucleotide (compound G)", "setting": "ApoB mRNA [3]", "result": "better knockdown"}, {"measurement": "knock down of ApoB mRNA in the liver compared to unconjugated (naked) oligonucleotide (compound F)", "setting": "ApoB mRNA [3]", "result": "improved knock down"}, {"measurement": "ALT levels (U/L) in serum as % of saline", "setting": "ALT in serum (Example 7); Day 7", "result": "136.7 % of saline"}, {"measurement": "ALT levels (U/L) in serum as % of saline", "setting": "ALT in serum (Example 7); Day 14", "result": "111.3 % of saline"}, {"measurement": "ApoB mRNA/mGAPDH expression as % of saline, Avg kidney", "setting": "ApoB mRNA [2]; Day 7, kidney", "result": "93.8 % of saline"}, {"measurement": "ApoB mRNA/mGAPDH expression as % of saline, Avg liver", "setting": "ApoB mRNA [2]; Day 7, liver", "result": "63.2 % of saline"}, {"measurement": "ApoB mRNA/mGAPDH expression as % of saline, Avg kidney", "setting": "ApoB mRNA [2]; Day 14, kidney", "result": "74.4 % of saline"}, {"measurement": "ApoB mRNA/mGAPDH expression as % of saline, Avg liver", "setting": "ApoB mRNA [2]; Day 14, liver", "result": "116.3 % of saline"}, {"measurement": "Oligonucleotide content, Kidney", "setting": "[4]; 0.1 mg/kg single sc dose", "result": 0.080, "unit": "μg/g tissue"}, {"measurement": "Oligonucleotide content, Liver", "setting": "[4]; 0.1 mg/kg single sc dose", "result": 0.028, "unit": "μg/g tissue"}, {"measurement": "Oligonucleotide content, Kidney", "setting": "[4]; 0.25 mg/kg single sc dose", "result": 0.080, "unit": "μg/g tissue"}, {"measurement": "Oligonucleotide content, Liver", "setting": "[4]; 0.25 mg/kg single sc dose", "result": 0.028, "unit": "μg/g tissue"}, {"measurement": "uptake in liver and kidney compared to the unconjugated oligonucleotide (compound F)", "setting": "[4]; in words", "result": "enhanced uptake in the liver and reduced uptake in the kidney"}, {"measurement": "liver/kidney distribution ratio compared to GalNAc2 conjugated LNA oligonucleotide (compound G)", "setting": "[4]; in words, high dose", "result": "improved liver/kidney distribution ratio"}]}, {"substance": "5′-cOaOGS^mCSaStStSgSgStSaStSTS^mCSA-3′ [B]", "values": [{"measurement": "Oligonucleotide content, Avg kidney", "setting": "[1]; Day 7, kidney tissue", "result": 0.353, "unit": "µg/g"}, {"measurement": "Oligonucleotide content, Avg liver", "setting": "[1]; Day 7, liver tissue", "result": 0.161, "unit": "µg/g"}, {"measurement": "Oligonucleotide content, Avg kidney", "setting": "[1]; Day 14, kidney tissue", "result": 0.152, "unit": "µg/g"}, {"measurement": "Oligonucleotide content, Avg liver", "setting": "[1]; Day 14, liver tissue", "result": 0.066, "unit": "µg/g"}, {"measurement": "ALT levels (U/L) in serum as % of saline", "setting": "ALT in serum (Example 7); Day 7", "result": "177.3 % of saline"}, {"measurement": "ALT levels (U/L) in serum as % of saline", "setting": "ALT in serum (Example 7); Day 14", "result": "108.5 % of saline"}, {"measurement": "ApoB mRNA/mGAPDH expression as % of saline, Avg kidney", "setting": "ApoB mRNA [2]; Day 7, kidney", "result": "62.5 % of saline"}, {"measurement": "ApoB mRNA/mGAPDH expression as % of saline, Avg liver", "setting": "ApoB mRNA [2]; Day 7, liver", "result": "49.2 % of saline"}, {"measurement": "ApoB mRNA/mGAPDH expression as % of saline, Avg kidney", "setting": "ApoB mRNA [2]; Day 14, kidney", "result": "100.3 % of saline"}, {"measurement": "ApoB mRNA/mGAPDH expression as % of saline, Avg liver", "setting": "ApoB mRNA [2]; Day 14, liver", "result": "112.8 % of saline"}]}, {"substance": "5′-GS^mCSaStStSgSgStSaStSTS^mCSAOcOa-3′ [E]", "values": [{"measurement": "ApoB mRNA expression as % of saline, mRNA kidney", "setting": "ApoB mRNA [3]; 0.1 mg/kg single sc dose", "result": "84.8 % of saline"}, {"measurement": "ApoB mRNA expression as % of saline, mRNA liver", "setting": "ApoB mRNA [3]; 0.1 mg/kg single sc dose", "result": "60.5 % of saline"}, {"measurement": "ApoB mRNA expression as % of saline, mRNA kidney", "setting": "ApoB mRNA [3]; 0.25 mg/kg single sc dose", "result": "51.0 % of saline"}, {"measurement": "ApoB mRNA expression as % of saline, mRNA liver", "setting": "ApoB mRNA [3]; 0.25 mg/kg single sc dose", "result": "34.9 % of saline"}, {"measurement": "knock down of ApoB mRNA compared to the GalNAc2 cluster conjugated LNA oligonucleotide (compound G)", "setting": "ApoB mRNA [3]", "result": "comparable"}, {"measurement": "knock down of ApoB mRNA in the liver compared to unconjugated (naked) oligonucleotide (compound F)", "setting": "ApoB mRNA [3]", "result": "improved knock down"}, {"measurement": "Oligonucleotide content, Kidney", "setting": "[4]; 0.1 mg/kg single sc dose", "result": 0.094, "unit": "μg/g tissue"}, {"measurement": "Oligonucleotide content, Liver", "setting": "[4]; 0.1 mg/kg single sc dose", "result": 0.021, "unit": "μg/g tissue"}, {"measurement": "Oligonucleotide content, Kidney", "setting": "[4]; 0.25 mg/kg single sc dose", "result": 0.243, "unit": "μg/g tissue"}, {"measurement": "Oligonucleotide content, Liver", "setting": "[4]; 0.25 mg/kg single sc dose", "result": 0.069, "unit": "μg/g tissue"}, {"measurement": "uptake in liver and kidney compared to the unconjugated oligonucleotide (compound F)", "setting": "[4]; in words", "result": "enhanced uptake in the liver and reduced uptake in the kidney"}]}]}
